Test [1] has as its target T1, human TREM2 (hTREM2), expressed on cells (human, UniProt Q9NZC2 19-230).
T1 construct: Signal peptide 1-18 as stated left out; On CHO cells co-expressed with hDAP12; on hM2A macrophages endogenous; also called WT-TREM2; CHO-hDAP12-hTREM2
T1 sequence: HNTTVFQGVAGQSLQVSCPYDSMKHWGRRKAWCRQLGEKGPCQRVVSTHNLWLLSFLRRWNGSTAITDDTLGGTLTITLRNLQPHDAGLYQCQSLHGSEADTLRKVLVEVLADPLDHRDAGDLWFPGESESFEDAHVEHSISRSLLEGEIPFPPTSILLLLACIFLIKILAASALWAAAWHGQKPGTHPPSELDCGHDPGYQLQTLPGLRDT
Put plainly: FACS, hM2A macrophages. On the technique in general: A flow cytometer gives signals particle by particle.

The target in test [2] is T1, human TREM2 (hTREM2), expressed on cells. Briefly: cell-based or functional assay.
Test [3] shares this target. Put plainly: FACS, CHO-hDAP12-hTREM2 cells.
The target of test [4] is T2, hTREM2 ECD (19-174) (human, UniProt Q9NZC2 19-174).
T2 construct: Antigen in solution of the SET experiments; also called human TREM2 (SET antigen)
T2 sequence: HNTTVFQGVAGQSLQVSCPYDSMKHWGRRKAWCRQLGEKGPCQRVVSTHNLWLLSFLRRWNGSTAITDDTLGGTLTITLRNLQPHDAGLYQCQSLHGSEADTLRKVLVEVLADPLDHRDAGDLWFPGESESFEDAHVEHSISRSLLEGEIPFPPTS
Put plainly: SET.

The target of test [5] is T3, cynomolgus TREM2 (construct not stated) (cynomolgus, UniProt A0A2K5UY34 49-204).
T3 construct: also called cyno TREM2
T3 sequence: T2 sequence with A10E, W60R, L89F, F125V
Put plainly: SET.

The target of test [6] is T2, hTREM2 ECD (19-174). Put plainly: SET screening.
Method: Serial dilutions of unlabeled antigen were prepared, starting with a concentration at least 10 times higher than the expected KD. Wells without antigen were used to determine Bmax values; wells containing only assay buffer were used to determine background.
The data was evaluated with XLfit (IDBS) software applying customized fitting models. […] A constant amount of diluted BEL extract (containing borate buffer, EDTA and lysozyme) was equilibrated over night with different concentrations of antigen.
The target in test [7] is T1, human TREM2 (hTREM2), expressed on cells. Put plainly: FACS, hM2A, donor 1. As for the experimental part: (§1) To determine cellular EC₅₀ of antibodies on hM2A, CHO-hTREM2 or CHO-cynoTREM2, cells were treated o/n with 5 μM DPC333 (ADAM10 and 17 inhibitor; Qian, M et al. Drug Metab Dispos, 2007. 35:p. 1916-1925). Macrophages were detached with accutase (Biolegend, 423201) followed by resuspension in FACS buffer (PBS, 2% FBS, 0.5 mM EDTA, pH 8.0) supplemented with 50 μg/ml Fc block (BD, 564220) and incubated for at least 20 min on ice. Next cells were stained for 1 h at 4° C. in the same buffer with a broad concentration range of the different anti-TREM2 antibodies followed by a washing step with PBS (250 g, 4° C., 3 min). […] After a second washing step with PBS (250 g, 4° C., 3 min), cells were fixed with fixation buffer (Biolegend, 420801) for 15 min at RT, washed again and fluorescence was assessed using a BD FACS Canto II (BD, V96300323) or a FacsCalibur flow cytometer. Median fluorescence intensities corresponding to the degree of TREM2 antibody bound to cells were evaluated using FlowJo software (Millipore INC).
(§2) Individual values for each donor are given.

Test [8] shares this target. Briefly: FACS, hM2A, donor 2. As to the method:
as §1, §2

For test [9] the target is unchanged. Briefly: FACS, hM2A, donor 3. As for the experimental part: as §1, §2
The target is the same in test [10]. Put plainly: FACS, hM2A, donor 4. As for the experimental part:
as §1, §2

Test [11] concerns the target proteins of the protein panel profiling (3P), 25 in total. Briefly: protein panel profiling (3P), ECL.
For test [12], the target named is T1, human TREM2 (hTREM2), expressed on cells. Briefly: cell-based or functional assay. This is another data set of the same source.
For test [13] the target is unchanged. Briefly: cell-based or functional assay. The source holds these as a separate data set.
Test [14] has the same target. Put plainly: FACS, hM2A macrophages. As to the method:
as §1, §2
This is another data set of the same source.

The target is the same in test [15]. Put plainly: FACS, CHO-hTREM2 cells. As for the experimental part: as §1
Test [16] shares this target. Briefly: cell-based or functional assay. The source holds these as a separate data set.
The target of test [17] is T4, cynomolgus TREM2 expressed on CHO cells (cynomolgus, UniProt A0A2K5UY34 49-260).
T4 construct: whole, on cells; also called CHO-cyTREM2; CHO-cynoTREM2
T4 sequence: T1 sequence with A10E, W60R, L89F, F125V, I157V, L193P, Y201H
Briefly: FACS, CHO-cyTREM2 cells. As for the experimental part:
as §1

Test [18] addresses T5, hTREM2 ECD (19-174)-hFc (human, UniProt Q9NZC2 19-174, biotinylated in the -bio form).
T5 construct: Plain and biotinylated forms are kept as one molecule; also called hTREM2 ECD (19-174)-hFc-bio; hTREM2 Fc
T5 sequence: T2 sequence
Put plainly: SPR, label free kinetics. As to the method:
(§3) For a precise assessment of the binding affinities of the antibodies affinity-determination by measuring kinetic rate constants was performed by SPR. In addition a comparison to cynomolgus TREM2 was performed (Table 21).
(In general: Surface plasmon resonance follows binding to a sensor surface in real time, without labels.)

The target of test [19] is T6, cyTREM2 ECD (19-174)-APP-Avi (cynomolgus, UniProt A0A2K5UY34 49-204).
T6 construct: range 19-174
T6 sequence: T2 sequence with A10E, W60R, L89F, F125V
Put plainly: SPR, label free kinetics. As for the experimental part:
as §3

The target in test [20] is T7, hTREM2 IgSF-hTREM1 stalk-hFc (human, UniProt Q9NP99 135-205, limits assumed, biotinylated in the -bio form).
T7 construct: domain: stalk region; also called hTREM2 IgSF-T1 stalk-hFc-bio; hTREM2 IgSF-hTREM1 stalk-hFc-bio
T7 sequence: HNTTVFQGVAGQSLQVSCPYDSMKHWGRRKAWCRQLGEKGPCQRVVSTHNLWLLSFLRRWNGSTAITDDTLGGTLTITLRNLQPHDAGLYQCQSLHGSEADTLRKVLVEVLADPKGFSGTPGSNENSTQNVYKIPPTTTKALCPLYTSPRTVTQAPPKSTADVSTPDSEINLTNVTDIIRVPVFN
Put plainly: S/BG on recombinant protein.

The target in test [21] is T5, hTREM2 ECD (19-174)-hFc. Briefly: S/BG on recombinant protein.
The next test has as its target T8, cyTREM2 ECD (19-174)-hFc (cynomolgus, UniProt A0A2K5UY34 49-204).
T8 construct: range 19-174; also called cyTREM2-ECD (19-174)-hFc-bio
T8 sequence: T2 sequence with A10E, W60R, L89F, F125V
Put plainly: S/BG on recombinant protein.

In test [22] the target is T1, human TREM2 (hTREM2), expressed on cells. Briefly: FACS, hM2A, median of 4 donors. As to the method: as §1, §2

As usually defined, the EC50 is the concentration needed to bring the measured effect to its halfway point. Read a high EC50 as a need for much substance.

Where a chain is given by its changes, count along the chain named.

B1: MOR041877 (full IgG) (antibody, V domains shown)
VH: QVQLKESGPALVKPTQTLTLTCTFSGFSLSTSGVGVSWIRQPPGKALEWLALIFSDHDKIYSTSLKTRLTISKDTSKNQVVLTMTNMDPVDTATYYCARTLIDRSVYFDYWGQGTLVTVSS
VL: DIVLTQPPSVSGAPGQRVTISCSGSSSNIGHHYVSWYQQLPGTAPKLLIYDNTNRPSGVPDRFSGSKSGTSASLAITGLQAEDEADYYCATWDGLMNSIVFGGGTKLTVLG
With B1, the concentration giving a half-maximal response (EC50) was 700 pM in test [1] and 500 pM in test [3]. Also, the “RGA in THP-B5 cells (fold increase over BG)” value in test [2] was 2.1 fold.

B2: MOR044746 (antibody, V domains shown)
VH: QVQLQQSGPGLVKPSQTLSLTCAISGDSVSSSSAAWNWIRQSPSRGLEWLGHIGYRSKWYNEYAVSVKSRITINPDTSKNQFSLQLNSVTPEDTAVYYCARGMYGSVPYKEGYYFDIWGQGTLVTVSS
VL: DIQMTQSPSSLSASVGDRVTITCRASQGISSDLNWYQQKPGKAPKLLIYAASNLQSGVPSRFSGSGSGTDFTLTISSLQPEDFATYYCQQYTDESMTFGQGTKVEIK
notes: light chain 63); Human IgG vector of the campaign: IgG1f LALA; Matured from MOR042493; VH6 k1; also called MOR44746
B2: the Kd was 3 pM with hTREM2 ECD (19-174) [4]; 4 pM in [5]; less than 600 pM with hTREM2 ECD (19-174) [6]; 3 pM with hTREM2 ECD (19-174)-hFc [18]; 4 pM in test [19]. The EC50 in [7] is 730 pM; in [8], 540 pM; in test [9] it was 540 pM; in test [10], 640 pM; in test [14], less than 2000 pM; in test [15], 160 pM. In addition, the EC50 stood at 650 pM in [17] and 590 pM in test [22]. Moreover, in test [11], the Cumulative binding ratio is less than 150. Moreover, the “Internalization compared to parental after 6 h” value in test [12] is 0.7 fold of parental. Besides, in test [12], the “Internalization; fold over background after 6 h” value was found to be 33.3 fold. The “TREM2 activation (fold in RGA)” value in test [13] turned out to be 1.3 fold. For the same molecule, the “Fold TREM2 cell surface increase compared to isotype (hM2A, 100 nM o/n)” value in test [16] stood at 5.1 fold. Moreover, the figures for the S/BG (in test [20]; with hTREM2 ECD (19-174)-hFc [21]; in the test with cyTREM2 ECD (19-174)-hFc) were more than 20, more than 5 and more than 5, respectively.

B3: MOR044698 (antibody, V domains shown)
VH: QVQLVQSGAEVKKPGASVKVSCKASGYTFTGYHMSWVRQAPGQGLEWMGVINPVSGNTVYAQKFQGRVTMTRDTSISTAYMELSRLRSEDTAVYYCARIPSYTYAFDYWGQGTLVTVSS
VL: DIQMTQSPSSLSASVGDRVTITCRASQDISNYLAWYQQKPGKAPKLLIYRASSLQSGVPSRFSGSGSGTDFTLTISSLQPEDFATYYCFQYRHMPSQTFGQGTKVEIK
notes: light chain 26); Human IgG vector of the campaign: IgG1f LALA; Matured from MOR042596; VH1B k1; also called MOR44698
Turning to B3, the Kd was 46 pM with hTREM2 ECD (19-174) [4]; 39 pM in test [5]; less than 600 pM with hTREM2 ECD (19-174) [6]; 46 pM with hTREM2 ECD (19-174)-hFc [18]; 39 pM in test [19]. The EC50 in [7] was 860 pM; in test [8], 550 pM; in [9], 550 pM; in test [10] it was 560 pM; in test [14], less than 2000 pM; in test [15] it was 200 pM. Further, the EC50 in test [17] is 460 pM; in test [22], 560 pM. The Cumulative binding ratio in test [11] was less than 150. The “Internalization compared to parental after 6 h” value in test [12] was 1.5 fold of parental. Further, the “Internalization; fold over background after 6 h” value in [12] was 57.1 fold. The “TREM2 activation (fold in RGA)” value in test [13] came out at 1 fold. Moreover, the “Fold TREM2 cell surface increase compared to isotype (hM2A, 100 nM o/n)” value in [16] worked out at 7.9 fold. Also, the values for the S/BG (in [20]; in the test with hTREM2 ECD (19-174)-hFc [21]; in the test with cyTREM2 ECD (19-174)-hFc) were more than 20, more than 5 and more than 5, respectively.

The values are drawn from US20250215080A1 (published 2025).
